Assay results from patent US20240115603A1 (Zymeworks, published 2024).
Where a chain is given by its changes, count along the chain named.

T1: WT G-CSFR(Ig-CRH), purified, tag cleaved (human, UniProt Q99062 26-331)
T1 construct: also called G-CSFRWT; wild type G-CSFR ECD
T1 chain: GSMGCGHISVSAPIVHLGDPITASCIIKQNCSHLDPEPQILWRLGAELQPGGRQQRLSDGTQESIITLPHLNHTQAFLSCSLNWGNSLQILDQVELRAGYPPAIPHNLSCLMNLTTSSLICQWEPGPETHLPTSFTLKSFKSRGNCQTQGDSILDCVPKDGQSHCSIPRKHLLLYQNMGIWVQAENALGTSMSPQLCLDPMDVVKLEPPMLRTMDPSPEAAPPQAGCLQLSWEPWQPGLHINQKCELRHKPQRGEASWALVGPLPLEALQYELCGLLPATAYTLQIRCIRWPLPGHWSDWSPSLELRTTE

T2: G-CSFR(Ig-CRH)E design 9, purified, tag cleaved (human, UniProt Q99062 26-331)
T2 construct: SPR protein; also called Design 9 G-CSFR(Ig-CRH)E
T2 chain: T1 chain with R143E, R169D, K170D, Q176D

T3: WT G-CSF, purified, tag cleaved (human, UniProt P09919 31-206)
T3 construct: also called G-CSFWT
T3 sequence: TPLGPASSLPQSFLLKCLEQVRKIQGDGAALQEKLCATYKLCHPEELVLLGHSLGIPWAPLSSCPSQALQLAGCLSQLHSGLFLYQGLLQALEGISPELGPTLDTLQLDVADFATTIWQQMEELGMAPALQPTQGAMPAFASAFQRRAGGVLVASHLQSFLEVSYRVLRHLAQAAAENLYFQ

T4: G-CSFR(Ig-CRH)E design 34, purified, tag cleaved (human, UniProt Q99062 26-331)
T4 construct: SPR protein; also called Design 34 G-CSFR(Ig-CRH)E
T4 chain: T1 chain with R143E, R169D

T5: G-CSFR(Ig-CRH)E design 30, purified, tag cleaved (human, UniProt Q99062 26-331)
T5 construct: also called Design 30 G-CSFR(Ig-CRH)E
T5 chain: T1 chain with R169D

T6: G-CSFR(Ig-CRH)E design 35, purified, tag cleaved (human, UniProt Q99062 26-331)
T6 construct: SPR protein; also called Design #35 G-CSFR(Ig-CRH)E
T6 chain: T1 chain with R143E, L173E, Q176E

B1: G-CSFE design 9, purified, tag cleaved (ligand)
chain: T3 sequence with D104R, L108K, D112R, Q119R, E122K
notes: also called Design 9 G-CSFE
B2: G-CSFR(Ig-CRH)E design 304, purified, tag cleaved (receptor)
chain: T1 chain with R43E, E95K, R169D
notes: SPR protein; also called Design 304 G-CSFR(Ig-CRH)E
B3: G-CSFR(Ig-CRH)E design 134 (R41E_R141E_R167D), purified, tag cleaved (receptor)
chain: T1 chain with R43E, R143E, R169D
notes: also called Design 134 G-CSFR(Ig-CRH)E; design 137 G-CSFR(Ig-CRH)E
B4: G-CSFE design 134, purified, tag cleaved (ligand)
chain: T3 sequence with E46R, L108K, D112R, E122R, E123R
notes: also called Design #134 G-CSFE
B5: G-CSFR(Ig-CRH)E design 130, purified, tag cleaved (receptor)
chain: T1 chain with R43E, R169D
notes: SPR protein; also called Design 130 G-CSFR(Ig-CRH)E
B6: G-CSFR(Ig-CRH)E design 402, purified, tag cleaved (receptor)
chain: T1 chain with R43E, R169E, Q176E, R290E
notes: SPR protein; also called Design 402 G-CSFR(Ig-CRH)E
B7: G-CSFR(Ig-CRH)E design 300, purified, tag cleaved (receptor)
chain: T1 chain with F77K, Q93K, R169D
notes: SPR protein; also called Design 300 G-CSFR(Ig-CRH)E
B8: G-CSFE design 130 (E46R_L108K_D112R), purified, tag cleaved (ligand)
chain: T3 sequence with E46R, L108K, D112R
notes: also called 130 G-CSF; G-CSF137
B9: G-CSFE design 34, purified, tag cleaved (ligand)
chain: T3 sequence with L108K, D112R, E122R, E123R
notes: also called Design 34 G-CSFE
B10: G-CSFR(Ig-CRH)E design 303, purified, tag cleaved (receptor)
chain: T1 chain with E95K, R169D
notes: SPR protein; also called Design 303 G-CSFR(Ig-CRH)E
B11: G-CSFR(Ig-CRH)E design 307, purified, tag cleaved (receptor)
chain: T1 chain with R43E, D199K, D202K, R290E
notes: SPR protein; also called Design 307 G-CSFR(Ig-CRH)E
B12: G-CSFE design 30, purified, tag cleaved (ligand)
chain: T3 sequence with L108K, D112R
notes: also called Design 30 G-CSFE
B13: G-CSFE design 117, purified, tag cleaved (ligand)
chain: T3 sequence with E46R, E122R, E123R
notes: also called Design 117 G-CSFE
B14: G-CSFR(Ig-CRH)E design 401, purified, tag cleaved (receptor)
chain: T1 chain with R43E, R169D, R290D
notes: SPR protein; also called Design 401 G-CSFR(Ig-CRH)E
B15: G-CSFE design 35, purified, tag cleaved (ligand)
chain: T3 sequence with T115K, E122R, E123R
notes: also called Design 35 G-CSFE

Tests used:
[1] = target: T1, WT G-CSFR(Ig-CRH), purified, tag cleaved; assay: SPR (Biacore T200)
[2] = target: T2, G-CSFR(Ig-CRH)E design 9, purified, tag …; assay: SPR (Biacore T200), G-CSFR(Ig-CRH)E amine-coupled, G-CSFE injected; KD relative to WT:WT control (larger = weaker)
Description: (§1) The SPR binding assays were carried out on a Biacore T200 instrument (GE Healthcare, Mississauga, ON, Canada) with PBS-T (PBS+0.05% (v/v) Tween 20) running buffer at a temperature of 25° C. CMS Series S sensor chip, Biacore amine coupling kit (NHS, EDC and 1 M ethanolamine), and 10 mM sodium acetate buffers were all purchased from GE Healthcare. PBS running buffer with 0.05% Tween20 (PBS-T) was purchased from Teknova Inc. (Hollister, CA).
(§2) To determine binding affinity of G-CSFE to G-CSFRE the G-CSFRE mutant was captured by standard amine coupling as described by the manufacturer (GE LifeSciences). Briefly, immediately after EDC/NHS activation, a 5 μg/mL solution of G-CSFRE in 10 mM NaOAc, pH 5.0, was injected at a flow rate of 5 μL/min until a receptor density of ˜700-900 RU was reached. The remaining active groups were quenched by a 420 s injection of 1 M ethanolamine hydrochloride-NaOH pH 8.5 at 10 μL/min. Using single-cycle kinetics, six concentrations of a two-fold dilution series of the corresponding G-CSFE mutant starting at 200 nM with a blank buffer control were sequentially injected at 25 μL/min for 300s with a 1800s dissociation phase, resulting in a set of sensorgrams with a buffer blank reference. The same sample titration was also performed on a reference cell with no variants captured. The chip was regenerated to prepare for the next injection cycle by one pulse of 10 mM glycine/HCl, pH 2.0, for 30 s at 30 μL/min.
(§3) Double-referenced sensorgrams from duplicate or triplicate repeat injections were analyzed using Biacore™ T200 Evaluation Software v3.0 and fit to the 1:1 Langmuir binding model.

[3] = target: T1, WT G-CSFR(Ig-CRH), purified, tag cleaved; assay: SPR (Biacore T200), WT G-CSFR(Ig-CRH) amine-coupled, G-CSFE injected; KD relative to WT:WT control (larger = weaker)
[4] = target: T3, WT G-CSF, purified, tag cleaved; assay: SPR (Biacore T200)
[5] = target: B3; assay: SPR (Biacore T200), G-CSFR(Ig-CRH)E amine-coupled, G-CSFE injected; KD relative to WT:WT control (larger = weaker)
Description: as §1, §2, §3

[6] = target: T1, WT G-CSFR(Ig-CRH), purified, tag cleaved; assay: SPR (Biacore T200), WT G-CSFR(Ig-CRH) amine-coupled
[7] = target: B5; assay: SPR (Biacore T200), G-CSFR(Ig-CRH)E amine-coupled, G-CSFE injected; KD relative to WT:WT control (larger = weaker)
Description: as §1, §2, §3

[8] = target: T4, G-CSFR(Ig-CRH)E design 34, purified, …; assay: as above
Description: as §1, §2, §3

[9] = target: T5, G-CSFR(Ig-CRH)E design 30, purified, …; assay: as above
Description: as §1, §2, §3

[10] = target: T6, G-CSFR(Ig-CRH)E design 35, purified, …; assay: as above
Description: as §1, §2, §3

Binder | KD fold change (vs WT:WT) [3] [fold] | binding result [4] | further results
B1 | 79 | – | fold weaker KD (vs WT:WT) [1]: ≥ 20 fold; KD fold change (vs WT:WT) [2]: 1.2 fold
B2 | – | no binding | –
B3 | – | no binding | –
B4 | 465 | – | fold weaker affinity (vs WT:WT) [1]: ~500 fold; KD fold change (vs WT:WT) [5]: 1 fold
B5 | – | no binding | –
B6 | – | no binding | –
B7 | – | no binding | –
B8 | – | – | binding result [6]: no binding; KD fold change (vs WT:WT) [7]: 0.9 fold; KD fold change (vs WT:WT) [5]: 0.3 fold
B9 | 33 | – | fold weaker KD (vs WT:WT) [1]: ≥ 20 fold; KD fold change (vs WT:WT) [8]: 5 fold
B10 | – | no binding | –
B11 | – | no binding | –
B12 | 20 | – | fold weaker KD (vs WT:WT) [1]: ≥ 20 fold; KD fold change (vs WT:WT) [9]: 11 fold
B13 | 3.4 | – | –
B14 | – | no binding | –
B15 | 5 | – | KD fold change (vs WT:WT) [10]: 3.3 fold
